Reference: the supplement of paper PMC9732359
± gives the uncertainty stated by the source.

test: protein stability index of a GFP-peptide fusion (yeast GPS) (PSI 1-4); higher = more stable; sorted into four equal gates, so the index is relative within each strain; details: pdr5∆
How it was run: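 The protein stability index of a peptide was calculated by multiplying its read frequency in each gate by that gate's number and adding the products. The peptides were tiled 17-residue stretches of yeast proteins, fused downstream of GFP on a Cherry-expressing plasmid and carried in yeast as a pooled library. Mid-log cultures in leucine-free medium were sorted into four equal gates by GFP/Cherry ratio, and each gate's plasmids were PCR-amplified and Illumina-sequenced.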

Sequence | protein stability index
NTAFGNSNPTSNVFGSN [YJL041W/NSP1] | 3.6 ± 0.17
NTEKDYKMVQEQLSKQR [SMC2] | 3.17 ± 0.072
NTENNDPDIPMTIDLEP [IRR1] | 2.94 ± 0.16

same assay, conditions: san1∆

Sequence | protein stability index
NGDNLYGNDEEVLFYED [RPN4] | 3.1 ± 0.096
NGDNSTTTNTDQNNATM [SNF12] | 2.52 ± 0.097
NGFAPISEVMEDRNQRI [FAS1] | 3.42 ± 0.05
NGGVGVDVELITSINVE [FAS2] | 3.11 ± 0.05
NGKLTSANERLFGNRPS [YML031W/NDC1] | 2.69 ± 0.094
NGLAIRRAAYGVVRYVM [RPS3] | 1.77 ± 0.074
NGNLEEEFAYVDPARRQ [MED6] | 3.71 ± 0.1
NGNTSSKTVVTLSEPVQ [FAS1] | 2.96 ± 0.059
NGRLNKCGVISPRFNVK [RPS22A] | 2.88 ± 0.2
NGSSDASSLRFGNSLSN [YDL088C/ASM4] | 2.69 ± 0.05
NGTISKTGKKNKVAKKN [SRP14] | 3.09 ± 0.13
NGVRALFHSCTRIQYVD [GRR1] | 1.86 ± 0.068
NGWEKYLHNVELGEKKN [ISW2] | 1.65 ± 0.16
NHNQFECKGCDNKIDIY [RPB2] | 3.06 ± 0.034
NHSLQHQNESSAASIPP [RPN4] | 2.83 ± 0.062
NIDSSAQFTFGKAATAK [YOR098C/NUP1] | 3.22 ± 0.13
NIEEMARVILYLKNVLF [SIN4] | 2.01 ± 0.11
NIFSEAVKNKYNVGKQL [PRP28] | 1.82 ± 0.14
NIKIDAKPALFERFINA [MCD1] | 2.3 ± 0.1
NIKTIAETLAEELINAA [RPS5] | 2.85 ± 0.057
NILPFLWGPHGLNSDAE [ECM29] | 2.54 ± 0.14
NIRGNTIRQIILPDSLN [SMD1] | 2.76 ± 0.16
NKDMIKNLVKVLESRVN [CSN12] | 1.58 ± 0.18
NKINSRNSWNFALIDYF [BRN1] | 1.11 ± 0.11
NKLSGILADEMGLGKTL [ISW2] | 3.15 ± 0.049

Sequence | protein stability index
NKTDAQAPTTGFSFGSQ [YJL041W/NSP1] | 3.28 ± 0.077
NKVGSTGSLMGGNSTQN [YGR119C/NUP57] | 3.19 ± 0.059
NKVHETSSKSSSLSAII [YDL088C/ASM4] | 2.81 ± 0.054
NKVQIMIATNVAARGLD [PRP28] | 1.43 ± 0.15
NKVSNTVSPTQDKDAIR [SIR2] | 3.17 ± 0.056
NLDAAAAGTSQARTATL [RPC10] | 2.73 ± 0.1
NLDYLFELIELVTPKSF [NUT1] | 3.09 ± 0.062
NLFPLKPKMLPIPSKPT [SRP68] | 2.43 ± 0.16
NLKGRPYTGWVDSKTKE [FAS2] | 3.11 ± 0.048
NLLHSYMEKGTQLDDLQ [YML103C/NUP188] | 2.35 ± 0.052
NLLKDEGVTPGRIRTTR [SSN3] | 3.26 ± 0.12
NLNDAGLALQLFKKLKE [RPN2] | 2.51 ± 0.24
NLPEHIVPGTYIQERNP [RPS10A] | 2.7 ± 0.047
NLQPISTPENVPRLFDL [SMC4] | 2.6 ± 0.12
NLRLLNSIDSTSRIELE [ECM29] | 2.92 ± 0.064
NLRLLVEENRVRYTTSV [DLS1] | 2.08 ± 0.079
NLSAFKIVYIAPLKALV [BRR2] | 1.49 ± 0.12
NLSRYPKSGIDIFVYLT [MTR3] | 2.07 ± 0.079
NLYHVTEDGWIYHGNHD [PRE2] | 2.88 ± 0.18
NMLPQRQSSVGSLNATN [SNF2] | 2.78 ± 0.052
NMMDAISFVLGVRSNHL [SMC1] | 2.77 ± 0.067
NNEMKSLQRSKSSFVKE [SMC1] | 3.03 ± 0.11
NNHNMRNNSNNKTSNNN [SWI1] | 1.85 ± 0.093
NNIKNGTNNISQHGQGN [YDL088C/ASM4] | 3.05 ± 0.034
NNNNNNNNSNNIMSASG [YGL172W/NUP49] | 2.67 ± 0.077

Sequence | protein stability index
NNPLVQKKNFLFKPLNK [ARP7] | 2.2 ± 0.28
NNRMGSYDCTGVNELAP [POP1] | 2.74 ± 0.085
NNRSVSMQTIAETIILS [SRB5] | 1.56 ± 0.07
NNSALSNVNSDIYFKLK [RPT3] | 3.27 ± 0.14
NNSNNNNIIRIQQLISQ [SNF11] | 2.54 ± 0.08
NNTEKNDVTNKNINIGK [SIR4] | 2.9 ± 0.043
NNTNNNNTNTGASGVDD [SWI1] | 3.05 ± 0.072
NNWFSLPGDMLAVCDEL [SIN4] | 1.73 ± 0.13
NPFEDDMDGVDFNQAFE [BRN1] | 3.39 ± 0.038
NPHQKDQLIISSSANKL [YML103C/NUP188] | 2.29 ± 0.15
NPIIENNVDNKYKSGGK [SSN2] | 3.04 ± 0.043
NPKYDTSNASMNTTLGS [YAR002W/NUP60] | 3.12 ± 0.034
NPLAKTMADAVRELGIL [SEC65] | 2.42 ± 0.075
NPMKKHKPNEGRTPNIS [SIR4] | 2.88 ± 0.052
NPPYSQCIVYPNCLFIL [SOH1] | 1.86 ± 0.06
NPVTLNEDSKAFHTAVL [NUT1] | 2.82 ± 0.075
NQDSVKTYALESINNVV [RPN2] | 2.95 ± 0.074
NQLEDFILELEHKTPEL [YIL149C/MLP2] | 3.07 ± 0.14
NQSFIQQKANLLSSSNF [COR1] | 2.04 ± 0.083
NQTNINSLAVRGKDCTV [SCL1] | 3.29 ± 0.068
NQVMMDRKIQGWLGALT [ARP7] | 3 ± 0.054
NRERFISKLFLRGDSVI [SMD2] | 1.51 ± 0.14
NRGNKKRHRSSYYDNDL [YML031W/NDC1] | 3.24 ± 0.072
NRKVLQALEKIGIVEIS [RPS19A] | 2.24 ± 0.074
NRKVRAGRGFTLAEVKA [RPL13A] | 2.82 ± 0.043

Sequence | protein stability index
NRMQISPDQMRNLQMGL [GRR1] | 3.27 ± 0.11
NRQAAASVVPSASSLVI [RPL12A] | 1.98 ± 0.049
NRRGMLALSGTSASNTS [SNF5] | 2.86 ± 0.064
NRRKQSFVLNKNTIDFE [RPN4] | 2.1 ± 0.075
NRTKSTTIKNIDILNRT [SMC4] | 2.38 ± 0.062
NRTMDGKPVSLPLLYNF [FAS1] | 2.7 ± 0.072
NRTVLLKIFKIFCIDLE [SRB8] | 1.89 ± 0.13
NSADAAYAQVEIQPRAN [FAS2] | 2.21 ± 0.061
NSASNNGNLTSNQLISN [SWI1] | 2.45 ± 0.11
NSDIANLRTQVTQQKRS [SMC1] | 2.97 ± 0.062
NSESDSKSDSDSEERDP [ITC1] | 3.01 ± 0.12
NSKDHKKITLQLLDTSN [SIN4] | 3.04 ± 0.074
NSLFYLKWSACTSLMDI [IRR1] | 1.61 ± 0.13
NSLLSNFNDIPPSVTLQ [YDL088C/ASM4] | 2.04 ± 0.11
NSLLTIVWRFISENTFP [RPC34] | 2.08 ± 0.076
NSMDISMFSGLDSTGFD [MED2] | 3.21 ± 0.041
NSNSNQQSTDADEDDED [RPT1] | 2.46 ± 0.091
NSNSNSGSLFGSNNAQT [YGL172W/NUP49] | 2.9 ± 0.3
NSPTSFFDGSASSTPIP [YOR098C/NUP1] | 2.94 ± 0.052
NSSEIQSAIRPAGQATQ [RPL4A] | 2.77 ± 0.039
NSSSMEEVMRIALMGQD [ESC2] | 2.19 ± 0.12
NTEKDYKMVQEQLSKQR [SMC2] | 3.25 ± 0.045
